Measured values taken from paper PMC9442473, “Centriole growth is limited by the Cdk/Cyclin-dependent phosphorylation of Ana2/STIL” (The Journal of Cell Biology, 2022).

B1: Ana2-mNG (natural protein, Drosophila melanogaster, UniProt Q9XZ31 1-420, looked up)
chain: MFVPETEDMLPRLAPRPSAAVPMGHTNEIIGPTVPEVSILFGQPPQDPQMQPQQPNHAHQESSPRAAPTFASWKKQMLPRVNFSPILATELGPRTAPSSNSPCSSKEYQVMPRDRNYASDAQQTTNHMNCNAGGYNAEPKQQAYQSRRLSSSSNADVLTICAGTQTDPFNPSPPRKSLPQVVYSDIDVSNLANKSDLAALVSLVESVRHEQQQLRNLCEMILEQQQRAKPEAISKASSTTGTQCDILTTNQAGRRLSPIMQDYIAEEEEPLPPPQARVIPQFPSPRPHPPIAQSTGYRANTPQAKRIPQLAKPNTEKSMVMNELALKYLRQPVDELMKDMRLGASPKSPNPEPLRPIDNIGHAQSPNDISNASYKYLKKYRLLPEEQLEPVCPQSPMAATAPSPHIQLDLENIRNQPKLL
notes: Ana2 (fly homologue of STIL), Drosophila melanogaster; mNG with a short linker knocked in at the C-terminus of the endogenous locus; The protein appeared overexpressed about 2-4X against the untagged one; also called Ana2/STIL; WT Ana2-mNG; source: CRISPR/Cas9 knock-in at the endogenous locus, in the cytoplasm of living Drosophila syncytial embryos; not shown: mNeonGreen (mNG), C-terminal, kept
B2: mNG-Ana2 (natural protein, Drosophila melanogaster, UniProt Q9XZ31 1-420, looked up)
chain: B1 chain
notes: Ana2 (fly homologue of STIL), Drosophila melanogaster; mNG with a short linker knocked in at the N-terminus of the endogenous locus; also called Ana2/STIL; source: CRISPR/Cas9 knock-in at the endogenous locus, in the cytoplasm of living Drosophila syncytial embryos; not shown: mNeonGreen (mNG), N-terminal, kept

Biological target: the molecule itself
Experiment: fluorescence correlation spectroscopy (FCS), photon-count rate per molecule (CPM); point FCS in the cytoplasm of living syncytial embryos at the beginning of nuclear cycle 12, 25.0-26.0°C; CPM compared with monomeric (mNG) and dimeric (dNG) NeonGreen controls

Row | Protein | stoichiometry N
1 | B1 | ~2
2 | B2 | ~2
